Source: patent US8476072B2, “Meganuclease recombination system” (Cellectis, priority 2008, dated 2013)

Test system: cGPS CHO-K1 cells
Assay: Gene targeting (KI assay) of lacZ integration matrix in cGPS CHO-K1 cells, double G418/puromycin selection
Type: cell-based
Details: cGPS CHO-K1, pTV-DS-lacz integration matrix, G418 + puromycin selection
Procedure: Transfection: On D day, 0.5 μg of the pTV-DS-lacz (SEQ ID NO: 17) is transfected in cGPS CHO-K1 cells by using the PolyFect® reagent from Qiagen. One day after the transfection of the integration matrix (D+1), 1000 μg of the purified DPV15b/I-CreI N75/6× His (SEQ ID NO: 58) meganuclease protein is directly added into transfected cGPS CHO-K1 cells.
Selection: cGPS CHO-K1 cells are transfected with the protocol described above. 24 hours after transfection, the cells are washed and fresh medium supplemented with 0.6 mg/ml of G418 is added. After 10 days of G418 selection, the culture medium is replaced with complete medium supplemented with G418 at 0.6 mg/ml and puromycin at 10 μg/ml. 3 to 4 days later, double resistant clones are visualized through an inverted microscope. At this step, double resistant clones are either stained for lacz expression monitoring or picked up for amplification and molecular characterization. (see section 2.5)
X-gal staining: Culture medium is removed and LacZ-targeted double resistant cGPS CHO-K1 adherent cells are washed once with PBS. 5 ml of fixing buffer (100 mM phosphate buffer, 1 mM MgCl2, 0.5% (v/v) glutaraldehyde (Prolabo, 25% solution)) is added. After 10 min. of incubation on ice, fixing is replaced by 5 ml of washing buffer (100 mM phosphate buffer, 1 mM MgCl2, 0.02% (v/v) NP40). […]

B1: DPV15b/I-CreI N75/6× His: purified recombinant I-CreI N75 meganuclease with cell-penetrating peptide DPV15b fused at N-terminal and 6x histidine tag at C-terminal (protein)
chain: MGAYDLRRRERQSRLRRRERQSRNTKYNKEFLLYLAGFVDGDGSIIAQIKPNQSYKFKHQLSLTFQVTQKTQRRWFLDKLVDEIGVGYVRDRGSVSNYILSEIKPLHNFLTQLQPFLKLKQKQANLVLKIIEQLPSAKESPDKFLEVCTWVDQIAALNDSKTRKTTSETVRAVLDSLSEKKKSSPAAALEHHHHHH
Q: What does the source list for B1?
A: number of double resistant cell colonies generated: around 30; selection frequency: 3×10^−4
